Experimental data: FireProtDB (doi:10.1021/bi00158a021)

Details: Bos taurus, pH 8, GdnHCl, CD, cacodylate 50 mM, reversible: yes

For Phospholipase A2 F128I, P00593, which “ddG of mutation (higher = less stable)” value (30 °C, structure 1BP2) is on record?
Its value is -1.9 kcal/mol.

What about the denaturant m value (30 °C, structure 1BP2) of the same substance?
The denaturant m value was 1.65 kcal/mol/M.

And the “denaturant midpoint (higher = more stable)” value (“denaturant midpoint” for short) (30 °C, structure 1BP2)?
Its value is 6.9 M.

What about the unfolding free energy (30 °C, structure 1BP2) of the same substance?
Its unfolding free energy is 11.4 kcal/mol.

With Phospholipase A2 F44Y, P00593 as the substance, how does the “ddG of mutation (higher = less stable)” value (30 °C, structure 1BP2) read?
The value was -1.5 kcal/mol.

What about the denaturant m value (30 °C, structure 1BP2) of the same substance?
Its denaturant m value is 1.58 kcal/mol/M.

And the “denaturant midpoint” value (30 °C, structure 1BP2)?
Its value is 7 M.

And the unfolding free energy (30 °C, structure 1BP2)?
Its unfolding free energy is 11 kcal/mol.

Which denaturant m value (30 °C) does the source give for Phospholipase A2 wild type, P00593 here?
The denaturant m value was 1.47 kcal/mol/M.

And the “denaturant midpoint” value (30 °C)?
The value was 6.9 M.

And the unfolding free energy (30 °C)?
The unfolding free energy was 9.5 kcal/mol.

For Phospholipase A2 F44I, P00593, which “ddG of mutation (higher = less stable)” value (30 °C, structure 1BP2) is on record?
Its value is -2.7 kcal/mol.

What about the denaturant m value (30 °C, structure 1BP2) of the same substance?
The denaturant m value was 1.73 kcal/mol/M.

What about the “denaturant midpoint” value (30 °C, structure 1BP2) of the same substance?
Its value is 7 M.

And the unfolding free energy (30 °C, structure 1BP2)?
Its unfolding free energy is 12.2 kcal/mol.

With Phospholipase A2 F128Y, P00593 as the substance, how does the “ddG of mutation (higher = less stable)” value (30 °C, structure 1BP2) read?
The value was -0.6 kcal/mol.

What about the denaturant m value (30 °C, structure 1BP2) of the same substance?
The denaturant m value was 1.53 kcal/mol/M.

What about the “denaturant midpoint” value (30 °C, structure 1BP2) of the same substance?
The value was 6.6 M.

What about the unfolding free energy (30 °C, structure 1BP2) of the same substance?
The unfolding free energy was 10.1 kcal/mol.

With Phospholipase A2 F128A, P00593 as the substance, how does the “ddG of mutation (higher = less stable)” value (25 °C, structure 1BP2) read?
Its value is 0.9 kcal/mol.

And the denaturant m value (25 °C, structure 1BP2)?
The denaturant m value was 1.47 kcal/mol/M.

What about the “denaturant midpoint” value (25 °C, structure 1BP2) of the same substance?
The value was 5.9 M.

And the unfolding free energy (25 °C, structure 1BP2)?
The unfolding free energy was 8.6 kcal/mol.
